# Assay results reported in PMC11756378, “Centriolar cap proteins CP110 and CPAP control slow elongation of microtubule plus ends” (The Journal of Cell Biology, 2025).
# B1: CP110-CC2 (residues 635–717) (domain or fragment, human, UniProt O43303-2 635-717, looked up)
# chain: GTSSKESEELLKSKMLAFEEMRKRLEEQHAQQLSLLIAEQEREQERLQKEIEEQEKMLKEKKAMTAEASELDINNAVELEWRK
# notes: CP110, human, residues 635-717 (coiled-coil domain CC2); Homodimer alone by SEC-MALS; one chain in the heterodimer with CPAP-CC1; Calculated mass of the monomer: 10.0 kDa; also called CP110 fragment 635–717; source: E. coli BL21(DE3), purified (Ni-NTA, tag cleaved with HRV 3C protease, SEC); not shown: thioredoxin, N-terminal, cleaved; His6, N-terminal, cleaved
# B2: CEP97^CP110-GFP-SII (CEP97 residues 1–650 fused to CP110 residues 581–991) (other, human, UniProt Q8IW35 1-650, looked up)
# chain: MAVARVDAALPPGEGSVVNWSGQGLQKLGPNLPCEADIHTLILDKNQIIKLENLEKCKRLIQLSVANNRLVRMMGVAKLTLLRVLNLPHNSIGCVEGLKELVHLEWLNLAGNNLKAMEQINSCTALQHLDLSDNNISQIGDLSKLVSLKTLLLHGNIITSLRMAPAYLPRSLAILSLAENEIRDLNEISFLASLTELEQLSIMNNPCVMATPSIPGFDYRPYIVSWCLNLRVLDGYVISQKESLKAEWLYSQGKGRAYRPGQHIQLVQYLATVCPLTSTLGLQTAEDAKLEKILSKQRFHQRQLMNQSQNEELSPLVPVETRASLIPEHSSPVQDCQISQESEPVIQVNSWVGINSNDDQLFAVKNNFPASVHTTRYSRNDLHLEDIQTDEDKLNCSLLSSESTFMPVASGLSPLSPTVELRLQGINLGLEDDGVADESVKGLESQVLDKEEEQPLWAANENSVQMMRSEINTEVNEKAGLLPCPEPTIISAILKDDNHSLTFFPESTEQKQSDIKKPENTQPENKETISQATSEKLPMILTQRSVALGQDKVALQKLNDAATKLQACWRGFYARNYNPQAKDVRYEIRLRRMQEHIVCLTDEIRRLRKERDEERIKKFVQEEAFRFLWNQVRSLQVWQQTVDQRLSSWHFEKVKRRLDLDIDGLQKENCPYVITSGITEQERQHLPEKRYPKGSGFVNKNKMLGTSSKESEELLKSKMLAFEEMRKRLEEQHAQQLSLLIAEQEREQERLQKEIEEQEKMLKEKKAMTAEASELDINNAVELEWRKISDSSLLETMLSQADSLHTSNSNSSGFTNSAMQYSFVSANEAPFYLWGSSTSGLTKLSVTRPFGRAKTRWSQVFSLEIQAKFNKITAVAKGFLTRRLMQTDKLKQLRQTVKDTMEFIRSFQSEAPLKRGIVSAQDASLQERVLAQLRAALYGIHDIFFVMDAAERMSILHHDREVRKEKMLRQMDKMKSPRVALSAATQKSLDRKKYMKAAEMGMPNKKFLVKQNPSETRVLQPNQGQNAPVHRLLSRQGSICRKNPKKAAKCCDNLRRQHSLG
# notes: CEP97, human, residues 1-650; Dimer by single-molecule fluorescence intensity; A linker between the two parts is not described; also called CP110-CEP97 fusion; CEP97^CP110 chimera; source: HEK293T, transfected; purified (StrepTactin) for the in vitro assays; in lysate for the co-immunoprecipitation; not shown: GFP, C-terminal, kept; twin-Strep-tag (SII), C-terminal, kept
# Key:
# [1] = biological target: CEP97^CP110-GFP-SII (CEP97 residues 1–650 fused to CP110 residues 581–991) (human) (UniProt Q8IW35)
# [2] = biological target: T1, CPAP-CC1 (residues 89–196) (human, UniProt Q9HC77 89-196); test: cross-linking; zero-length cross-linking with 60 mM DMTMM, 6 min, 25°C, then mass spectrometry (xQuest); details: both partners purified
# T1 construct: Calculated mass of the monomer: 12.5 kDa; source: E. coli BL21(DE3), purified (Ni-NTA, tag cleaved with HRV 3C protease, SEC); not shown: thioredoxin, N-terminal, cleaved; His6, N-terminal, cleaved
# T1 sequence (looked up): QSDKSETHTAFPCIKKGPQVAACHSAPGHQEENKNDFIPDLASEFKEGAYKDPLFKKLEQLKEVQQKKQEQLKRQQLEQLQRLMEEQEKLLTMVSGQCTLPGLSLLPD
# [3] = biological target: the molecule itself; test: SEC-MALS; 20°C, Superdex S75 10/30 or S200 10/30, 20 mM HEPES pH 7.5, 150 mM NaCl, 2 mM DTT; 15 µl at ∼7 mg/ml; proteins alone or mixed equimolar (also 2:1 and 3:1); homodimer for CP110-CC2
# [4] = biological target: the molecule itself; test: single-molecule fluorescence intensity (TIRF microscopy); single molecules immobilised on coverslips in MRB80; intensity compared with GFP (monomers) and GFP-EB3 (dimers)
molecule,measurement,setting,value
"CPAP-NMUT-mCh (CPAP 1–607 L149A/K150A, GCN4 leucine zipper, mCherry, SII) (from UniProt Q9HC77 1-607)","percentage of time CEP97^CP110-GFP was bound to MT plus ends, 20 nM CEP97^CP110-GFP with 50 nM CPAP-NMUT-mCh",[1],26%
"CPAP-NWT-mCh (CPAP 1–607, GCN4 leucine zipper, mCherry, SII) (from UniProt Q9HC77 1-607)",MT plus-end growth rate with 20 nM CEP97^CP110-GFP and 50 nM CPAP-NWT-mCh (TIRF reconstitution),[1],0.05 to 0.1 µm/min
same,"percentage of time CEP97^CP110 was present at MT plus ends, 20 nM CEP97^CP110-GFP with 50 nM CPAP-NWT-mCh",[1],69%
B1,binding result,[2],binds
same,stoichiometry N,[3],2
B2,stoichiometry N,[4],2
